Test results from US20060233822A1 (YANG SHENG TANG, published 2006).
Positions count from the first letter of the chain named.

Legend:
NE2 mutant 601LI = target: T1, NE2 mutant 601LI (hepatitis E virus, UniProt P29326 394-600); assay: WB
T1 chain: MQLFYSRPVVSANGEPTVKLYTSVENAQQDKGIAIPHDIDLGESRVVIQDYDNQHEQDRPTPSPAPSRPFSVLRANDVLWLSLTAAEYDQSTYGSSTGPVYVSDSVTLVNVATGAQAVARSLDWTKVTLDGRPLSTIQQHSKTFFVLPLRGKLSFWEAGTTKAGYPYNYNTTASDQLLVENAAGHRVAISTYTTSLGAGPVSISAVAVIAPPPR

NE2 mutant 601LP = target: T2, NE2 mutant 601LP (hepatitis E virus, UniProt P29326 394-600); assay: WB
T2 construct: position counted on HEV ORF2
T2 chain: T1 chain with I209P

NE2 mutant 601LG = target: T3, NE2 mutant 601LG (hepatitis E virus, UniProt P29326 394-600); assay: WB
T3 construct: position counted on HEV ORF2
T3 chain: T1 chain with I209G

NE2 mutant 601LC = target: T4, NE2 mutant 601LC (hepatitis E virus, UniProt P29326 394-600); assay: WB
T4 construct: position counted on HEV ORF2
T4 chain: T1 chain with I209C

NE2 mutant 601LE = target: T5, NE2 mutant 601LE (hepatitis E virus, UniProt P29326 394-600); assay: WB
T5 construct: position counted on HEV ORF2
T5 chain: T1 chain with I209E

7-peptide TNLRLDS = assay: phage display panning on coated MAb; 1 clone
7-peptide MLWGPSD = assay: phage display panning on coated MAb; 1 clone
7-peptide QPATWNT = assay: phage display panning on coated MAb; 1 clone
7-peptide GGWGPFA = assay: phage display panning on coated MAb; 1 clone
7-peptide ALWGPTS = assay: phage display panning on coated MAb; 1 clone
7-peptide YQDSAKT = assay: phage display panning on coated MAb; 3 clones

Measured: binding result

B1: monoclonal antibody 16D7 (antibody, V domains shown)
VH: EVQLQQSGPELVKPGASVKMSCKASGYKFTSYVMHWVKQKPGQGLEWIGYINPSNDNIKYNEKFKGKAILTLDKSSSTAYMAFSSLTSEDSAVYYCATLTGVDYWGQGTTLTVSS
VL: DVVMTQTPLSLSVTIGQPASISCKSSQSLLYRNGKIYLNWLQQRPGQAPKHLMSQVSKLDPGIPDRFSGSGSETDFTLKISRVEAEDLGVYYCLQGTHYPYTFGGGTKLEIKR
notes: also called MAb 16D7; HRP-16D7
binds: all assays above
